Laboratory results taken from US20150344570A1 (published 2015).

Target: T1, FcγRIa (human, UniProt P12314 16-292)
T1 construct: extracellular domain; also called FcgRI; FcgRIa; not shown: His tag attached to the C terminus
Experiment: SPR (Biacore), relative binding; control HoCon Ab GpH7-B3/GpL16-k0

T1 sequence (P12314 16-292): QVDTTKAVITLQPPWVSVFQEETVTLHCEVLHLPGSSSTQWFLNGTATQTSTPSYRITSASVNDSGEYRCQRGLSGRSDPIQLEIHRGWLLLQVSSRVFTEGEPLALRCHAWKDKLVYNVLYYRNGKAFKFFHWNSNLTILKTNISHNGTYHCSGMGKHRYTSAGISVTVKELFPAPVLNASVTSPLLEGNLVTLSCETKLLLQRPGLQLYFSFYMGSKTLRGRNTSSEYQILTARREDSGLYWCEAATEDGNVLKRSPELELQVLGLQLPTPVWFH

| Binder | Ho/Con_1a |
| --- | --- |
| GpH7-B3 variant P271_18N/GpL16-k0 (antibody, human IgG1, kappa, Alteration in both H chains; also called Ho Ab P271_18N) heavy: not shown light: DIVMTQSPLSLPVTPGEPASISCQASESLVHSNRNTYLHWYLQKPGQSPQLLIYKVSNRFSGVPDRFSGSGSGTDFTLKISRVEAEDVGVYYCSQNTHVPPTFGQGTKVEIERTVAAPSVFIFPPSDEQLKSGTASVVCLLNNFYPREAKVQWKVDNALQSGNSQESVTEQDSKDSTYSLSSTLTLSKADYEKHKVYACEVTHQGLSSPVTKSFNRGEC | 103 % of control (=100) |
| GpH7-B3 variant S267_10E/GpL16-k0 (antibody, human IgG1, kappa, Alteration in both H chains; also called Ho Ab S267_10E) heavy: not shown light: DIVMTQSPLSLPVTPGEPASISCQASESLVHSNRNTYLHWYLQKPGQSPQLLIYKVSNRFSGVPDRFSGSGSGTDFTLKISRVEAEDVGVYYCSQNTHVPPTFGQGTKVEIERTVAAPSVFIFPPSDEQLKSGTASVVCLLNNFYPREAKVQWKVDNALQSGNSQESVTEQDSKDSTYSLSSTLTLSKADYEKHKVYACEVTHQGLSSPVTKSFNRGEC | 107 % of control (=100) |
| GpH7-B3 variant S267_06M/GpL16-k0 (antibody, human IgG1, kappa, Alteration in both H chains; also called Ho Ab S267_06M) heavy: not shown light: DIVMTQSPLSLPVTPGEPASISCQASESLVHSNRNTYLHWYLQKPGQSPQLLIYKVSNRFSGVPDRFSGSGSGTDFTLKISRVEAEDVGVYYCSQNTHVPPTFGQGTKVEIERTVAAPSVFIFPPSDEQLKSGTASVVCLLNNFYPREAKVQWKVDNALQSGNSQESVTEQDSKDSTYSLSSTLTLSKADYEKHKVYACEVTHQGLSSPVTKSFNRGEC | 106 % of control (=100) |
| GpH7-B3 variant S267_19Q/GpL16-k0 (antibody, human IgG1, kappa, Alteration in both H chains; also called Ho Ab S267_19Q) heavy: not shown light: DIVMTQSPLSLPVTPGEPASISCQASESLVHSNRNTYLHWYLQKPGQSPQLLIYKVSNRFSGVPDRFSGSGSGTDFTLKISRVEAEDVGVYYCSQNTHVPPTFGQGTKVEIERTVAAPSVFIFPPSDEQLKSGTASVVCLLNNFYPREAKVQWKVDNALQSGNSQESVTEQDSKDSTYSLSSTLTLSKADYEKHKVYACEVTHQGLSSPVTKSFNRGEC | 104 % of control (=100) |
| GpH7-B3 variant Y296_02A/GpL16-k0 (antibody, human IgG1, kappa, Alteration in both H chains; also called Ho Ab Y296_02A) heavy: not shown light: DIVMTQSPLSLPVTPGEPASISCQASESLVHSNRNTYLHWYLQKPGQSPQLLIYKVSNRFSGVPDRFSGSGSGTDFTLKISRVEAEDVGVYYCSQNTHVPPTFGQGTKVEIERTVAAPSVFIFPPSDEQLKSGTASVVCLLNNFYPREAKVQWKVDNALQSGNSQESVTEQDSKDSTYSLSSTLTLSKADYEKHKVYACEVTHQGLSSPVTKSFNRGEC | 103 % of control (=100) |
| GpH7-B3 variant S337_14T/GpL16-k0 (antibody, human IgG1, kappa, Alteration in both H chains; also called Ho Ab S337_14T) heavy: not shown light: DIVMTQSPLSLPVTPGEPASISCQASESLVHSNRNTYLHWYLQKPGQSPQLLIYKVSNRFSGVPDRFSGSGSGTDFTLKISRVEAEDVGVYYCSQNTHVPPTFGQGTKVEIERTVAAPSVFIFPPSDEQLKSGTASVVCLLNNFYPREAKVQWKVDNALQSGNSQESVTEQDSKDSTYSLSSTLTLSKADYEKHKVYACEVTHQGLSSPVTKSFNRGEC | 106 % of control (=100) |
| GpH7-B3 variant S267_14T/GpL16-k0 (antibody, human IgG1, kappa, Alteration in both H chains; also called Ho Ab S267_14T) heavy: not shown light: DIVMTQSPLSLPVTPGEPASISCQASESLVHSNRNTYLHWYLQKPGQSPQLLIYKVSNRFSGVPDRFSGSGSGTDFTLKISRVEAEDVGVYYCSQNTHVPPTFGQGTKVEIERTVAAPSVFIFPPSDEQLKSGTASVVCLLNNFYPREAKVQWKVDNALQSGNSQESVTEQDSKDSTYSLSSTLTLSKADYEKHKVYACEVTHQGLSSPVTKSFNRGEC | 107 % of control (=100) |
| GpH7-B3 variant Y296_03V/GpL16-k0 (antibody, human IgG1, kappa, Alteration in both H chains; also called Ho Ab Y296_03V) heavy: not shown light: DIVMTQSPLSLPVTPGEPASISCQASESLVHSNRNTYLHWYLQKPGQSPQLLIYKVSNRFSGVPDRFSGSGSGTDFTLKISRVEAEDVGVYYCSQNTHVPPTFGQGTKVEIERTVAAPSVFIFPPSDEQLKSGTASVVCLLNNFYPREAKVQWKVDNALQSGNSQESVTEQDSKDSTYSLSSTLTLSKADYEKHKVYACEVTHQGLSSPVTKSFNRGEC | 104 % of control (=100) |
| GpH7-B3 variant S337_18N/GpL16-k0 (antibody, human IgG1, kappa, Alteration in both H chains; also called Ho Ab S337_18N) heavy: not shown light: DIVMTQSPLSLPVTPGEPASISCQASESLVHSNRNTYLHWYLQKPGQSPQLLIYKVSNRFSGVPDRFSGSGSGTDFTLKISRVEAEDVGVYYCSQNTHVPPTFGQGTKVEIERTVAAPSVFIFPPSDEQLKSGTASVVCLLNNFYPREAKVQWKVDNALQSGNSQESVTEQDSKDSTYSLSSTLTLSKADYEKHKVYACEVTHQGLSSPVTKSFNRGEC | 106 % of control (=100) |
| GpH7-B3 variant S239_10E/GpL16-k0 (antibody, human IgG1, kappa, Alteration in both H chains; also called Ho Ab S239_10E) heavy: not shown light: DIVMTQSPLSLPVTPGEPASISCQASESLVHSNRNTYLHWYLQKPGQSPQLLIYKVSNRFSGVPDRFSGSGSGTDFTLKISRVEAEDVGVYYCSQNTHVPPTFGQGTKVEIERTVAAPSVFIFPPSDEQLKSGTASVVCLLNNFYPREAKVQWKVDNALQSGNSQESVTEQDSKDSTYSLSSTLTLSKADYEKHKVYACEVTHQGLSSPVTKSFNRGEC | 106 % of control (=100) |
| GpH7-B3 variant Q295_10E/GpL16-k0 (antibody, human IgG1, kappa, Alteration in both H chains; also called Ho Ab Q295_10E) heavy: not shown light: DIVMTQSPLSLPVTPGEPASISCQASESLVHSNRNTYLHWYLQKPGQSPQLLIYKVSNRFSGVPDRFSGSGSGTDFTLKISRVEAEDVGVYYCSQNTHVPPTFGQGTKVEIERTVAAPSVFIFPPSDEQLKSGTASVVCLLNNFYPREAKVQWKVDNALQSGNSQESVTEQDSKDSTYSLSSTLTLSKADYEKHKVYACEVTHQGLSSPVTKSFNRGEC | 105 % of control (=100) |
| GpH7-B3 variant S337_11K/GpL16-k0 (antibody, human IgG1, kappa, Alteration in both H chains; also called Ho Ab S337_11K) heavy: not shown light: DIVMTQSPLSLPVTPGEPASISCQASESLVHSNRNTYLHWYLQKPGQSPQLLIYKVSNRFSGVPDRFSGSGSGTDFTLKISRVEAEDVGVYYCSQNTHVPPTFGQGTKVEIERTVAAPSVFIFPPSDEQLKSGTASVVCLLNNFYPREAKVQWKVDNALQSGNSQESVTEQDSKDSTYSLSSTLTLSKADYEKHKVYACEVTHQGLSSPVTKSFNRGEC | 105 % of control (=100) |
| GpH7-B3 variant S324_09D/GpL16-k0 (antibody, human IgG1, kappa, Alteration in both H chains; also called Ho Ab S324_09D) heavy: not shown light: DIVMTQSPLSLPVTPGEPASISCQASESLVHSNRNTYLHWYLQKPGQSPQLLIYKVSNRFSGVPDRFSGSGSGTDFTLKISRVEAEDVGVYYCSQNTHVPPTFGQGTKVEIERTVAAPSVFIFPPSDEQLKSGTASVVCLLNNFYPREAKVQWKVDNALQSGNSQESVTEQDSKDSTYSLSSTLTLSKADYEKHKVYACEVTHQGLSSPVTKSFNRGEC | 106 % of control (=100) |
| GpH7-B3 variant T335_01G/GpL16-k0 (antibody, human IgG1, kappa, Alteration in both H chains; also called Ho Ab T335_01G) heavy: not shown light: DIVMTQSPLSLPVTPGEPASISCQASESLVHSNRNTYLHWYLQKPGQSPQLLIYKVSNRFSGVPDRFSGSGSGTDFTLKISRVEAEDVGVYYCSQNTHVPPTFGQGTKVEIERTVAAPSVFIFPPSDEQLKSGTASVVCLLNNFYPREAKVQWKVDNALQSGNSQESVTEQDSKDSTYSLSSTLTLSKADYEKHKVYACEVTHQGLSSPVTKSFNRGEC | 106 % of control (=100) |
| GpH7-B3 variant S298_09D/GpL16-k0 (antibody, human IgG1, kappa, Alteration in both H chains; also called Ho Ab S298_09D) heavy: not shown light: DIVMTQSPLSLPVTPGEPASISCQASESLVHSNRNTYLHWYLQKPGQSPQLLIYKVSNRFSGVPDRFSGSGSGTDFTLKISRVEAEDVGVYYCSQNTHVPPTFGQGTKVEIERTVAAPSVFIFPPSDEQLKSGTASVVCLLNNFYPREAKVQWKVDNALQSGNSQESVTEQDSKDSTYSLSSTLTLSKADYEKHKVYACEVTHQGLSSPVTKSFNRGEC | 106 % of control (=100) |
| GpH7-B3 variant S324_10E/GpL16-k0 (antibody, human IgG1, kappa, Alteration in both H chains; also called Ho Ab S324_10E) heavy: not shown light: DIVMTQSPLSLPVTPGEPASISCQASESLVHSNRNTYLHWYLQKPGQSPQLLIYKVSNRFSGVPDRFSGSGSGTDFTLKISRVEAEDVGVYYCSQNTHVPPTFGQGTKVEIERTVAAPSVFIFPPSDEQLKSGTASVVCLLNNFYPREAKVQWKVDNALQSGNSQESVTEQDSKDSTYSLSSTLTLSKADYEKHKVYACEVTHQGLSSPVTKSFNRGEC | 106 % of control (=100) |
| GpH7-B3 variant T335_02A/GpL16-k0 (antibody, human IgG1, kappa, Alteration in both H chains; also called Ho Ab T335_02A) heavy: not shown light: DIVMTQSPLSLPVTPGEPASISCQASESLVHSNRNTYLHWYLQKPGQSPQLLIYKVSNRFSGVPDRFSGSGSGTDFTLKISRVEAEDVGVYYCSQNTHVPPTFGQGTKVEIERTVAAPSVFIFPPSDEQLKSGTASVVCLLNNFYPREAKVQWKVDNALQSGNSQESVTEQDSKDSTYSLSSTLTLSKADYEKHKVYACEVTHQGLSSPVTKSFNRGEC | 105 % of control (=100) |
| GpH7-B3 variant S337_16H/GpL16-k0 (antibody, human IgG1, kappa, Alteration in both H chains; also called Ho Ab S337_16H) heavy: not shown light: DIVMTQSPLSLPVTPGEPASISCQASESLVHSNRNTYLHWYLQKPGQSPQLLIYKVSNRFSGVPDRFSGSGSGTDFTLKISRVEAEDVGVYYCSQNTHVPPTFGQGTKVEIERTVAAPSVFIFPPSDEQLKSGTASVVCLLNNFYPREAKVQWKVDNALQSGNSQESVTEQDSKDSTYSLSSTLTLSKADYEKHKVYACEVTHQGLSSPVTKSFNRGEC | 105 % of control (=100) |
| GpH7-B3 variant P271_19Q/GpL16-k0 (antibody, human IgG1, kappa, Alteration in both H chains; also called Ho Ab P271_19Q) heavy: not shown light: DIVMTQSPLSLPVTPGEPASISCQASESLVHSNRNTYLHWYLQKPGQSPQLLIYKVSNRFSGVPDRFSGSGSGTDFTLKISRVEAEDVGVYYCSQNTHVPPTFGQGTKVEIERTVAAPSVFIFPPSDEQLKSGTASVVCLLNNFYPREAKVQWKVDNALQSGNSQESVTEQDSKDSTYSLSSTLTLSKADYEKHKVYACEVTHQGLSSPVTKSFNRGEC | 104 % of control (=100) |
| GpH7-B3 variant Q295_12R/GpL16-k0 (antibody, human IgG1, kappa, Alteration in both H chains; also called Ho Ab Q295_12R) heavy: not shown light: DIVMTQSPLSLPVTPGEPASISCQASESLVHSNRNTYLHWYLQKPGQSPQLLIYKVSNRFSGVPDRFSGSGSGTDFTLKISRVEAEDVGVYYCSQNTHVPPTFGQGTKVEIERTVAAPSVFIFPPSDEQLKSGTASVVCLLNNFYPREAKVQWKVDNALQSGNSQESVTEQDSKDSTYSLSSTLTLSKADYEKHKVYACEVTHQGLSSPVTKSFNRGEC | 101 % of control (=100) |
| GpH7-B3 variant S267_18N/GpL16-k0 (antibody, human IgG1, kappa, Alteration in both H chains; also called Ho Ab S267_18N) heavy: not shown light: DIVMTQSPLSLPVTPGEPASISCQASESLVHSNRNTYLHWYLQKPGQSPQLLIYKVSNRFSGVPDRFSGSGSGTDFTLKISRVEAEDVGVYYCSQNTHVPPTFGQGTKVEIERTVAAPSVFIFPPSDEQLKSGTASVVCLLNNFYPREAKVQWKVDNALQSGNSQESVTEQDSKDSTYSLSSTLTLSKADYEKHKVYACEVTHQGLSSPVTKSFNRGEC | 107 % of control (=100) |
| GpH7-B3 variant T335_13S/GpL16-k0 (antibody, human IgG1, kappa, Alteration in both H chains; also called Ho Ab T335_13S) heavy: not shown light: DIVMTQSPLSLPVTPGEPASISCQASESLVHSNRNTYLHWYLQKPGQSPQLLIYKVSNRFSGVPDRFSGSGSGTDFTLKISRVEAEDVGVYYCSQNTHVPPTFGQGTKVEIERTVAAPSVFIFPPSDEQLKSGTASVVCLLNNFYPREAKVQWKVDNALQSGNSQESVTEQDSKDSTYSLSSTLTLSKADYEKHKVYACEVTHQGLSSPVTKSFNRGEC | 105 % of control (=100) |
